From paper PMC8222386 come the findings set out here.

Experiment [1] addresses iLight (evolved photosensory core module of Idiomarina sp. bacterial phytochrome IsPadC) (Idiomarina sp. A28L).
For experiment [2] the target is unchanged. Put plainly: native gel or EMSA + SEC; Pr state: purified protein illuminated with 780/30 nm light (2 mW/cm2, 0.5 h) in 20 mM HEPES pH 7.7, 300 mM NaCl; native PAGE 4-20% gradient gel, 20 ug per lane, run in darkness, ZnCl2 staining; SEC on HiLoad 16/600 Superdex 200 in darkness, protein at 1.9 mg/ml. In general terms: A gel shift assay detects complexes by their altered migration in electrophoresis.

For experiment [3] the target is unchanged. The source holds these as a separate data set.
For experiment [4] the target is unchanged. Description: native gel or EMSA + SEC; Pfr state: purified protein illuminated with 660/15 nm light (2 mW/cm2, 0.5 h) in 20 mM HEPES pH 7.7, 300 mM NaCl; native PAGE 4-20% gradient gel, 20 ug per lane, run in darkness, ZnCl2 staining; SEC on HiLoad 16/600 Superdex 200 in darkness, protein at 1.9 mg/ml; step: dimers to tetramer.
Experiment [5] shares this target. This is another data set of the same source.
The target of experiment [6] is wild-type IsPadC-PCM (photosensory core module of Idiomarina sp. A28L phytochrome-activated diguanylyl cyclase) (Idiomarina sp. A28L). Put plainly: native gel or EMSA; native PAGE of Fig. 3f, 20 ug per lane, ZnCl2 staining for bound biliverdin; illumination state not told for this statement; step: monomers to dimer.

Regarding “iLight (evolved photosensory core module of Idiomarina sp. bacterial phytochrome IsPadC) (domain or fragment)”, the repression of the ColE-driven mCherry reporter in E. coli by LexA408-DBD-iLight-msfGFP, 660 nm light against darkness in experiment [1] was determined as 115 fold. Moreover, the stoichiometry N in experiment [2] stood at 2. The same substance came in with an RLuc8 reporter signal in livers of mice co-transfected with NLS-Gal4-DBD-iLight-VP16 and pG12-RLuc8, 24 h of 660 nm light against darkness in experiment [3] of 6 fold. Moreover, the stoichiometry N in experiment [4] turned out to be 4. Moreover, in experiment [5], the SEAP reporter production in HeLa cells with NLS-Gal4-DBD-iLight-VP16 after 48 h of 660 nm light against darkness, exogenous biliverdin from none (~20.5-fold) to 10 uM was 65 to 70 fold and the time course of SEAP reporter production in HeLa cells with NLS-Gal4-DBD-iLight-VP16, 660 nm light against darkness, 24 h (~19-fold) to 72 h turned out to be 70 fold.

In turn, “wild-type IsPadC-PCM (photosensory core module of Idiomarina sp. A28L phytochrome-activated diguanylyl cyclase) (domain or fragment)” returned a stoichiometry N in experiment [6] of 2.

The term stoichiometry N denotes a count of units in the complex or per binding partner.
